T1: human FcγRIIb extracellular domain with C-terminal His tag (human, UniProt P31994 43-217)
T1 construct: extracellular domain; not shown: His tag at the C terminus
T1 sequence (looked up): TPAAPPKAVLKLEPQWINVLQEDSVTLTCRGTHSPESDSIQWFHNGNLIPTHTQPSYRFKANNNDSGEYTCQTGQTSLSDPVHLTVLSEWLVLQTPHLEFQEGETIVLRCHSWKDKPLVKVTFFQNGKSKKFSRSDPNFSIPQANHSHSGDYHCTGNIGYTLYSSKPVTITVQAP

T2: human FcγRIIa type R (allotype R131) extracellular domain with C-terminal His tag (human, UniProt P12318 34-217)
T2 construct: extracellular domain; also called FcγRIIaR; FcγRIIa R type; not shown: His tag at the C terminus
T2 sequence (looked up): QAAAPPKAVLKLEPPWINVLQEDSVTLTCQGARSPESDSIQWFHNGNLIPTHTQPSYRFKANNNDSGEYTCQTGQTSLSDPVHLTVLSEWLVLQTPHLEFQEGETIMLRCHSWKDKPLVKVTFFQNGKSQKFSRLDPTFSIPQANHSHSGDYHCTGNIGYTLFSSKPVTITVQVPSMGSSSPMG


Columns and labels:
human FcRn [1] = biological target: T3, human FcRn (human, UniProt P55899 24-297; P61769 21-119); experiment: FcRn binding affinity at pH 6.0; method not stated
T3 construct: the construct is not described

human FcRn [2] = biological target: T3, human FcRn; experiment: binding to FcRn at pH 6.0; method not stated
[3] = biological target: T4, human FcγRIIIa type V (allotype V158) extracellular domain with C-terminal His tag (human, UniProt P08637 17-208); experiment: SPR (Biacore), antibody captured, FcγR analyte
T4 construct: extracellular domain; also called FcγRIIIaV; FcγRIIIa V type; not shown: His tag at the C terminus

[4] = biological target: T1, human FcγRIIb extracellular domain with …; experiment: SPR (Biacore), antibody captured, FcγR analyte
[5] = biological target: T2, human FcγRIIa type R (allotype R131) …; experiment: SPR (Biacore), antibody captured, FcγR analyte

T4 sequence (P08637 17-208 F176V): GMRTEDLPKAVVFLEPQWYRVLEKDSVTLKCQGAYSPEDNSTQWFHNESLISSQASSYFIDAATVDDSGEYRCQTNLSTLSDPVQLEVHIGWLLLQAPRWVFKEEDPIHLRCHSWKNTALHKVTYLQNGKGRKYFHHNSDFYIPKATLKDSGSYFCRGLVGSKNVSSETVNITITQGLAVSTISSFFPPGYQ

Row | Binder | Kd (human FcRn [1]) | Kd [4] | also measured
1 | Fv4-F1171 (antibody, human IgG1, kappa, copies: 2 + 2) heavy: QVQLQESGPGLVKPSETLSLTCAVSGHSISHDHAWSWVRQPPGEGLEWIGFISYSGITNYNPSLQGRVTISRDNSKNTLYLQMNSLRAEDTAVYYCARSLARTTAMDYWGEGTLVTVSSASTKGPSVFPLAPSSKSTSGGTAALGCLVKDYFPEPVTVSWNSGALTSGVHTFPAVLQSSGLYSLSSVVTVPSSSLGTQTYICNVNHKPSNTKVDKKVEPKSCDKTHTCPPCPAPELLGGPSVFLFPPKPKDTLMISRTPEVTCVVVDVSHEDPEVKFNWYVDGVEVHNAKTKPREEQYNSTYRVVSVLTVLHQDWLNGKEYKCKVSNKALPAPIEKTISKAKGQPREPQVYTLPPSRDELTKNQVSLTCLVKGFYPSDIAVEWESNGQPENNYKTTPPVLDSDGSFFLYSKLTVDKSRWQQGNVFNCSVLHEALHSHYTQKSLSLSP light: DIQMTQSPSSLSASVGDSVTITCQASTDISSHLNWYQQKPGKAPELLIYYGSHLLSGVPSRFSGSGSGTDFTFTISSLEAEDAATYYCGQGNRLPYTFGQGTKVEIERTVAAPSVFIFPPSDEQLKSGTASVVCLLNNFYPREAKVQWKVDNALQSGNSQESVTEQDSKDSTYSLSSTLTLSKADYEKHKVYACEVTHQGLSSPVTKSFNRGEC | 240 nM | – | –
2 | Fv4-LS (antibody, human IgG1, kappa, also called F22 (LS); F22; copies: 2 + 2) heavy: not shown light: DIQMTQSPSSLSASVGDSVTITCQASTDISSHLNWYQQKPGKAPELLIYYGSHLLSGVPSRFSGSGSGTDFTFTISSLEAEDAATYYCGQGNRLPYTFGQGTKVEIERTVAAPSVFIFPPSDEQLKSGTASVVCLLNNFYPREAKVQWKVDNALQSGNSQESVTEQDSKDSTYSLSSTLTLSKADYEKHKVYACEVTHQGLSSPVTKSFNRGEC | 160 nM | – | Kd (human FcRn [2]): 71 nM
3 | Fv4-F1173 (antibody, human IgG1, kappa, copies: 2 + 2) heavy: not shown light: DIQMTQSPSSLSASVGDSVTITCQASTDISSHLNWYQQKPGKAPELLIYYGSHLLSGVPSRFSGSGSGTDFTFTISSLEAEDAATYYCGQGNRLPYTFGQGTKVEIERTVAAPSVFIFPPSDEQLKSGTASVVCLLNNFYPREAKVQWKVDNALQSGNSQESVTEQDSKDSTYSLSSTLTLSKADYEKHKVYACEVTHQGLSSPVTKSFNRGEC | 530 nM | – | –
4 | Fv4-YTE (antibody, human IgG1, kappa, copies: 2 + 2) heavy: QVQLQESGPGLVKPSETLSLTCAVSGHSISHDHAWSWVRQPPGEGLEWIGFISYSGITNYNPSLQGRVTISRDNSKNTLYLQMNSLRAEDTAVYYCARSLARTTAMDYWGEGTLVTVSSASTKGPSVFPLAPSSKSTSGGTAALGCLVKDYFPEPVTVSWNSGALTSGVHTFPAVLQSSGLYSLSSVVTVPSSSLGTQTYICNVNHKPSNTKVDKKVEPKSCDKTHTCPPCPAPELLGGPSVFLFPPKPKDTLYITREPEVTCVVVDVSHEDPEVKFNWYVDGVEVHNAKTKPREEQYNSTYRVVSVLTVLHQDWLNGKEYKCKVSNKALPAPIEKTISKAKGQPREPQVYTLPPSRDELTKNQVSLTCLVKGFYPSDIAVEWESNGQPENNYKTTPPVLDSDGSFFLYSKLTVDKSRWQQGNVFSCSVMHEALHNHYTQKSLSLSP light: DIQMTQSPSSLSASVGDSVTITCQASTDISSHLNWYQQKPGKAPELLIYYGSHLLSGVPSRFSGSGSGTDFTFTISSLEAEDAATYYCGQGNRLPYTFGQGTKVEIERTVAAPSVFIFPPSDEQLKSGTASVVCLLNNFYPREAKVQWKVDNALQSGNSQESVTEQDSKDSTYSLSSTLTLSKADYEKHKVYACEVTHQGLSSPVTKSFNRGEC | 210 nM | – | –
5 | Fv4-F1172 (antibody, IgG1, copies: 2 + 2) heavy: QVQLQESGPGLVKPSETLSLTCAVSGHSISHDHAWSWVRQPPGEGLEWIGFISYSGITNYNPSLQGRVTISRDNSKNTLYLQMNSLRAEDTAVYYCARSLARTTAMDYWGEGTLVTVSSASTKGPSVFPLAPSSKSTSGGTAALGCLVKDYFPEPVTVSWNSGALTSGVHTFPAVLQSSGLYSLSSVVTVPSSSLGTQTYICNVNHKPSNTKVDKKVEPKSCDKTHTCPPCPAPELLGGPSVFLFPPKPKDTLMISRTPEVTCVVVDVSHEDPEVKFNWYVDGVEVHNAKTKPREEQYNSTYRVVSVLTVLHQDWLNGKEYKCKVSNKALPAPIEKTISKAKGQPREPQVYTLPPSRDELTKNQVSLTCLVKGFYPSDIAVEWESNGQPENNYKTTPPVLDSDGSFFLYSKLTVDKSRWQQGNVFSCSVMHEALHHHYTRKELSLSP light: DIQMTQSPSSLSASVGDSVTITCQASTDISSHLNWYQQKPGKAPELLIYYGSHLLSGVPSRFSGSGSGTDFTFTISSLEAEDAATYYCGQGNRLPYTFGQGTKVEIERTVAAPSVFIFPPSDEQLKSGTASVVCLLNNFYPREAKVQWKVDNALQSGNSQESVTEQDSKDSTYSLSSTLTLSKADYEKHKVYACEVTHQGLSSPVTKSFNRGEC | 400 nM | – | –
6 | Fv4-N434H (antibody, human IgG1, kappa, copies: 2 + 2) heavy: not shown light: DIQMTQSPSSLSASVGDSVTITCQASTDISSHLNWYQQKPGKAPELLIYYGSHLLSGVPSRFSGSGSGTDFTFTISSLEAEDAATYYCGQGNRLPYTFGQGTKVEIERTVAAPSVFIFPPSDEQLKSGTASVVCLLNNFYPREAKVQWKVDNALQSGNSQESVTEQDSKDSTYSLSSTLTLSKADYEKHKVYACEVTHQGLSSPVTKSFNRGEC | 430 nM | – | –
7 | IL6R-BP185/IL6R-L (antibody, human IgG1, kappa, copies: 2 + 2) heavy: QVQLQESGPGLVKPSETLSLTCAVSGHSISHDHAWSWVRQPPGEGLEWIGFISYSGITNYNPSLQGRVTISRDNSKNTLYLQMNSLRAEDTAVYYCARSLARTTAMDYWGEGTLVTVSSASTKGPSVFPLAPSSKSTSGGTAALGCLVKDYFPEPVTVSWNSGALTSGVHTFPAVLQSSGLYSLSSVVTVPSSSLGTQTYICNVNHKPSNTKVDKKVEPKSCDKTHTCPPCPAPDYLGDDSVFLFPPKPKDTLMISRTPEVTCVVVDVSHEDGEVKFNWYVDGVEVHNAKTKPREEQYNSTYRVVSVLTVLHQDWLNGKEYKCKVSNAALPKPIEKTISKAKGQPREPQVYTLPPSRDELTKNQVSLTCLVKGFYPSDIAVEWESNGQPENNYKTTPPVLDSDGSFFLYSKLTVDKSRWQQGNVFSCSVMHEALHNHYTQESLSLSP light: not shown | – | 69 nM | Kd [3]: 36000 nM; Kd [5]: 880 nM

Second part, led by results:

Row | Kd (human FcRn [1]) | Kd [4] | Binder | also measured
8 | – | 200 nM | IL6R-BP206/IL6R-L (antibody, human IgG1, kappa, copies: 2 + 2) heavy: QVQLQESGPGLVKPSETLSLTCAVSGHSISHDHAWSWVRQPPGEGLEWIGFISYSGITNYNPSLQGRVTISRDNSKNTLYLQMNSLRAEDTAVYYCARSLARTTAMDYWGEGTLVTVSSASTKGPSVFPLAPSSKSTSGGTAALGCLVKDYFPEPVTVSWNSGALTSGVHTFPAVLQSSGLYSLSSVVTVPSSSLGTQTYICNVNHKPSNTKVDKKVEPKSCDKTHTCPPCPAPDLLGGDSVFLFPPKPKDTLMISRTPEVTCVVVDVSHEDGEVKFNWYVDGVEVHNAKTKPREEQYNSTYRVVSVLTVLHQDWLNGKEYKCKVSNKALPRPIEKTISKAKGQPREPQVYTLPPSRDELTKNQVSLTCLVKGFYPSDIAVEWESNGQPENNYKTTPPVLDSDGSFFLYSKLTVDKSRWQQGNVFSCSVMHEALHNHYTQESLSLSP light: not shown | Kd [3]: 69000 nM
9 | – | 34 nM | IL6R-BP200/IL6R-L (antibody, human IgG1, kappa, copies: 2 + 2) heavy: QVQLQESGPGLVKPSETLSLTCAVSGHSISHDHAWSWVRQPPGEGLEWIGFISYSGITNYNPSLQGRVTISRDNSKNTLYLQMNSLRAEDTAVYYCARSLARTTAMDYWGEGTLVTVSSASTKGPSVFPLAPSSKSTSGGTAALGCLVKDYFPEPVTVSWNSGALTSGVHTFPAVLQSSGLYSLSSVVTVPSSSLGTQTYICNVNHKPSNTKVDKKVEPKSCDKTHTCPPCPAPDYLGDDSVFLFPPKPKDTLMISRTPEVTCVVVDVSHEDGEVKFNWYVDGVEVHNAKTKPREEQYNSTYRVVSVLTVLHQDWLNGKEYKCKVSNDALPRPIEKTISKAKGQPREPQVYTLPPSRDELTKNQVSLTCLVKGFYPSDIAVEWESNGQPENNYKTTPPVLDSDGSFFLYSKLTVDKSRWQQGNVFSCSVMHEALHNHYTQESLSLSP light: not shown | –
10 | – | 40 nM | IL6R-BP201/IL6R-L (antibody, human IgG1, kappa, copies: 2 + 2) heavy: QVQLQESGPGLVKPSETLSLTCAVSGHSISHDHAWSWVRQPPGEGLEWIGFISYSGITNYNPSLQGRVTISRDNSKNTLYLQMNSLRAEDTAVYYCARSLARTTAMDYWGEGTLVTVSSASTKGPSVFPLAPSSKSTSGGTAALGCLVKDYFPEPVTVSWNSGALTSGVHTFPAVLQSSGLYSLSSVVTVPSSSLGTQTYICNVNHKPSNTKVDKKVEPKSCDKTHTCPPCPAPDLLGDDSVFLFPPKPKDTLMISRTPEVTCVVVDVSHEDGEVKFNWYVDGVEVHNAKTKPREEQYNSTYRVVSVLTVLHQDWLNGKEYKCKVSNKALPRPIEKTISKAKGQPREPQVYTLPPSRDELTKNQVSLTCLVKGFYPSDIAVEWESNGQPENNYKTTPPVLDSDGSFFLYSKLTVDKSRWQQGNVFSCSVMHEALHNHYTQESLSLSP light: not shown | Kd [5]: 840 nM

Source: patent publication US20220389118A1 (Chugai, published 2022)
